Measurements published in article PMC7531515.

Assays:
[1] = molecular target: roledumab (human); assay: SEC + native MS
[2] = molecular target: roledumab (human); assay: native MS
[3] = SEC
[4] = molecular target: F(ab’)2 fragment of roledumab (IdeS digestion) (human); assay: SEC + native MS
[5] = molecular target: F(ab’)2 fragment of roledumab (IdeS digestion) (human); assay: native MS
[6] = molecular target: Fab fragment of roledumab (IgdE digestion) (human); assay: SEC + native MS
[7] = molecular target: Fab fragment of roledumab (IgdE digestion) (human); assay: native MS

B1: roledumab (antibody, V domains shown)
VH: QVQLVESGGGVVQPGRSLRLSCTASGFTFKNYAMHWVRQAPAKGLEWVATISYDGRNIQYADSVKGRFTFSRDNSQDTLYLQLNSLRPEDTAVYYCARPVRSRWLQLGLEDAFHIWGQGTMVTVSS
VL: AIRMTQSPSSFSASTGDRVTITCRASQDIRNYVAWYQQKSGKAPKFLIYAASTLQSGVPSRFSGSGSGTDFTLTINSLQSEDFATYYCQQYYNSPPTFGQGTRVEIT
relative abundance of dimer peak 1 (UV) [1]: 46%
relative abundance of dimer peak 2 (UV) [1]: 32%
relative abundance of dimer peak 3 (UV) [1]: 13%
stoichiometry N [1]: 2
relative abundance of dimer peak 2 (UV) [2]: 20%
relative abundance of dimer peak 3 (UV) [2]: 13%
relative abundance of dimer peak 4 (UV) [2]: 65%
stoichiometry N [2]: 2
percent HMW species in the isolated HMW fraction [3]: 85% of HMW species (peak 2)

B2: F(ab’)2 fragment of roledumab (IdeS digestion) (domain or fragment)
VH: QVQLVESGGGVVQPGRSLRLSCTASGFTFKNYAMHWVRQAPAKGLEWVATISYDGRNIQYADSVKGRFTFSRDNSQDTLYLQLNSLRPEDTAVYYCARPVRSRWLQLGLEDAFHIWGQGTMVTVSS
VL: AIRMTQSPSSFSASTGDRVTITCRASQDIRNYVAWYQQKSGKAPKFLIYAASTLQSGVPSRFSGSGSGTDFTLTINSLQSEDFATYYCQQYYNSPPTFGQGTRVEIT
relative abundance of F(ab’)2 dimer peak 1 (UV) [4]: 32%
relative abundance of F(ab’)2 dimer peak 2 (UV) [4]: 16%
relative abundance of F(ab’)2 dimer peak 3 (UV) [4]: 8%
stoichiometry N [4]: 2
relative abundance of F(ab’)2 dimer (UV) [5]: 54%
stoichiometry N [5]: 2

B3: Fab fragment of roledumab (IgdE digestion) (Fab, V domains shown)
VH: QVQLVESGGGVVQPGRSLRLSCTASGFTFKNYAMHWVRQAPAKGLEWVATISYDGRNIQYADSVKGRFTFSRDNSQDTLYLQLNSLRPEDTAVYYCARPVRSRWLQLGLEDAFHIWGQGTMVTVSS
VL: AIRMTQSPSSFSASTGDRVTITCRASQDIRNYVAWYQQKSGKAPKFLIYAASTLQSGVPSRFSGSGSGTDFTLTINSLQSEDFATYYCQQYYNSPPTFGQGTRVEIT
stoichiometry N [6]: 2
relative abundance of Fab dimers (UV) [7]: 10%
stoichiometry N [7]: 2
